A word on the IC50: it is the concentration needed to halve the response being measured.

Drawing on US20100113304A1 (Pfizer, published 2010), this text covers IC50 for two molecules.

For this assay, the target named is T1, biotin labeled hRAGE-Fc (human, UniProt Q15109 24-344, limits assumed, biotin labeled (site not stated)).
T1 construct: Biotinylated in selections and HTRF; also called Biotin-labeled RAGE-Fc; biotinylated RAGE-FC; not shown: Fc part, not described
The assay can be described thus: HTRF competition on biotinylated hRAGE-Fc; scFv titrated; competitor Eu-cryptate-labeled parental XT-M4 antibody. On the technique in general: Time-resolved FRET reads energy transfer from a long-lived donor to a nearby acceptor.

T1 sequence (Q15109 24-344 limits assumed): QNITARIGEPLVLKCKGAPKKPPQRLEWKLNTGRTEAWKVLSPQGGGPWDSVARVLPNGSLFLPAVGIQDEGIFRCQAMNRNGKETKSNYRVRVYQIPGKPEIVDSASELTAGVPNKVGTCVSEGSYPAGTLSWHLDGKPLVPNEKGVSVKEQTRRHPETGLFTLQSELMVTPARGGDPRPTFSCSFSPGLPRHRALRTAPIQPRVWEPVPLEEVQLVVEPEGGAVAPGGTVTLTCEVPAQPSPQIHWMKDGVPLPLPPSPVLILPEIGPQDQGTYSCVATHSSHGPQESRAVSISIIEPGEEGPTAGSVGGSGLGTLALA

B1: 3B4 scFv (scFv)
chain: DIQMTQSPSSLSASVGDRVTITCRASQDVGIYVNWFQQKPGKAPRRLIYRATNLADGVPSRFSGSRSGTDFTLTISSLQPEDFATYYCLEFDEHPLTFGGGTKVEIKDGGGSGGGGSGGGGSSEVQLVESGGGLVQPGGSLRLSCAASGFTFNNYWMTWVRQAPGKGLEWVASIDNSGDNTYYPDSVKDRFTISRDNAKNSLYLQMNSLRAEDTAVYYCARGGDIREGLRYWGQGTLVTVSS
In the case of B1, the IC50 turned out to be 1.31 nM.

B2: 6D5 scFv (scFv)
chain: DIQMTQSPSSLSASVGDRVTITCRASQDVGIYVNWFQQKPGKAPRRLIYRATNLADGVPSRFSGSRSGTDFTLTISSLQPEDFATYYCLEFDEHPLTFGGGTKVEIKDGGGSGGGGSGGGGSSEVQLVESGGGLVQPGGSLRLSCAASGFTFNNYWMTWVRQAPGKGLEWVASIDNSGDNTYYPDSVKDRFTISRDNAKNSLYLQMNSLRAEDTAVYYCARGGDIKVSLDQWGQGTLVTVSS
In the case of B2, the IC50 was determined as 1.46 nM.
